Test results reported in patent US20050153377A1 (ORIENTAL YEAST CO., LTD., priority 1999, published 2005).
One block for each molecule: values may come before it.

Legend:
[1] = biological target: T1, CRP (Homo sapiens, UniProt P02741); test: CRP activity to bind to immobilized PC-BSA, PC-antibody method (C); type: binding; conditions: Eu3+-labeled anti-CRP antibody, FIG. 6
T1 construct: purchased Oriental Yeast Co., Ltd. (Japan); host or cells: Escherichia coli
T1 sequence (P02741 19-224): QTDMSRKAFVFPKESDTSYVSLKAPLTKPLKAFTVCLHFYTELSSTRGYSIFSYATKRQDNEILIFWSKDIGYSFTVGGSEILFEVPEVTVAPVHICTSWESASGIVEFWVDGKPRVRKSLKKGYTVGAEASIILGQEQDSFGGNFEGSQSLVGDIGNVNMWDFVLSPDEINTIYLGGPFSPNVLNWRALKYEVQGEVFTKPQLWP
Experimental: Because it was difficult to immobilize PC-BSA without modification of the microtiter plate, PC-BSA was immobilized on the wells of a microtiter plate by using the PVLA method [Suzuki, N., et al., (1997) Anal. Biochem. 247, 4-12-416]. PVLA (2 mg) was suspended in 1 ml of water by ultrasonication; the resulting PVLA suspension of 40 μl was added to each well, for overnight incubation at 4° C. 1 mM NaIO4 solution was added in 50 μl-portions to each well, and the plate was incubated in darkness at ambient temperature for one hour. After the plate was washed, the PC-BSA solution (100 ng protein in 40 μl of water) was added to each well, followed by mixing with 5 μl of 2% (v/v) borane-pyridine complex, for incubation at 37° C. for 2 hours. The wells were blocked through incubation with 1M glycylglycine (40 μl) at 37° C. for 4 hours, and then followed by incubation with 200 μl of TBS containing 2% (w/v) BSA at 4° C. overnight. After the added solutions were removed at the individual stages of the following method, the wells were washed six times with 200 μl of TBS.
So as to immobilize PC58- or PC7-BSA solution (40 μl containing […] and PC of about 120 pmol or 15 pmol) in water, the solution was left to stand in the PVLA-coated well. After the wells were coated with PC-BSA and blocked with BSA, they were then washed six times with TBS (200 μl). […]

[2] = biological target: PC58-BSA (conjugate with 58 phosphorylcholine molecules on average bound per one bovine serum albumin molecule) (bovine) (UniProt P02769); test: quantitative precipitation at saturation, 20 µg PC58-BSA with 50 µg CRP
Sequence of PC58-BSA (conjugate with 58 phosphorylcholine molecules on average bound per one bovine serum albumin molecule) (bovine) (P02769 25-607 limits assumed, form in doubt): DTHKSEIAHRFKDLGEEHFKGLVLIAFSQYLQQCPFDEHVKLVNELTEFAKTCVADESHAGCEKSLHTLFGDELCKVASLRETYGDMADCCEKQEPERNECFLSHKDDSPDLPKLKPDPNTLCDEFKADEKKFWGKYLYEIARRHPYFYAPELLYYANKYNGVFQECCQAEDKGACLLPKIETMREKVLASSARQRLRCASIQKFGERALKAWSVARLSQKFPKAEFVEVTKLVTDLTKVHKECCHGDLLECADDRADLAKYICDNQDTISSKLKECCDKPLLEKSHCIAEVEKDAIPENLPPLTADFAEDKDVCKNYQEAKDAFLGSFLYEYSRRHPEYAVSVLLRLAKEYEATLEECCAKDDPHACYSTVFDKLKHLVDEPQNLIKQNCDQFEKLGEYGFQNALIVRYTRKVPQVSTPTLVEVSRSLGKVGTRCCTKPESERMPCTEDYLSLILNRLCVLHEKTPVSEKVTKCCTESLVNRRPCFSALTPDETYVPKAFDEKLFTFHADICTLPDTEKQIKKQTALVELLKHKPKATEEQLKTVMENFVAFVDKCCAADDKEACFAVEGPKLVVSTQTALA

- anti-CRP antibody (IgG) bound per PC-BSA-coated well [1]: 5.6 fmol per well
Molecule: PC58-BSA: conjugate where 58 PC molecules on average are bound per one BSA molecule

- anti-CRP antibody (IgG) bound per PC-BSA-coated well [1]: 2.2 fmol per well
Molecule: PC7-BSA: PC conjugate of bovine serum albumin (BSA) produced by the previously reported method

- amount of CRP in the precipitate [2]: 0.37 nmol
- amount of PC58-BSA in the precipitate [2]: 0.17 nmol
- ratio PC58-BSA:CRP in the precipitate (mol CRP (pentamer) per mol PC58-BSA) [2]: 2.2
B1: Recombinant human C-reactive protein (rhCRP) expressed in Escherichia coli (protein, UniProt P02741 19-224, looked up)
chain: T1 sequence (P02741 19-224)
